For series [1], the system named is type II collagen.
The test system of series [2] is type IV collagen.
For series [3], the system named is type VI collagen.
The subject of series [4] is type V collagen.
The subject of series [5] is fluorescently labeled type I collagen (FITC-collagen).
Series [6] deals with type III collagen.
The subject of series [7] is N-(3[2-furyl]acryloyl)-Leu-Gly-Pro-Ala.
The test system of series [8] is type I collagen.
For series [9], the target named is fluorescently labeled type I collagen (FITC-collagen). The source holds these as a separate data set.
Series [10] addresses type II collagen. This is another data set of the same source.
The target of series [11] is type V collagen. The source holds these as a separate data set.
The target of series [12] is type IV collagen. This is another data set of the same source.
For series [13], the target named is T1, N-(3[2-furyl]acryloyl)-Leu-Gly-Pro-Ala.
T1 chain: LGPA

In series [14] the target is type VI collagen. The source holds these as a separate data set.
In series [15] the target is type III collagen. The source holds these as a separate data set.
Series [16] has as its target type I collagen. The source holds these as a separate data set.

Like-named read-outs stand apart in the source and are kept apart here.

The values below come from patent US20170218352.

As to “collagenase derived from Clostridium histolyticum (manufactured by Roche Applied Science, trade name "Liberase C/T")”, the “disappearance of collagen bands on electrophoresis after incubation” value in [1] is “This tendency was also similarly observed for the type II, type III, type IV, type V, and type VI collagens”; in series [2] it was “the bands do not disappear when the liberase is used”; in [3], “the band does not disappear when the liberase is used”; in series [4], “the bands do not disappear when the liberase is used”; in [6], “This tendency was also similarly observed for the type II, type III, type IV, type V, and type VI collagens”; in series [8], “the recombinant 62 kDa collagenase seems to more rapidly digest the type I collagen than liberase”. In addition, the Maximum rate in series [5] was determined as 0.00016 mM/s; in series [7], 0.2 mM/s. For the same molecule, the Michaelis constant in series [5] came to 0.0019 mM; in series [7], 2.03 mM. The figures for the Molecular activity in series [5] and in series [7] were 18.7 s⁻¹ and 22.2 s⁻¹, respectively. Further, the Specific activity was 1770 U/mg in series [5] and 2.6 U/mg in [7].

B1: recombinant 60 kDa collagenase (Grimontia hollisae-derived recombinant collagenase) (protein)
chain: AVEQCDLSQFQTTSSNQLMAAIRQQGASCVNALFSADTGVQEAAFSSNHMYNVAQYTRTLAQQYAGGGSDELEALYLYLRAGYYAEFYNSNITFLSWVTPAVKGAVDAFVQNAHFYDNGDAHGKVLNEVIITMDSAGLQHAYLDVVTQWLTRWNAQYAEHWYMRNAVNGVFTLLFGGQWNNQYTSLIGEQTALVTALQAFALDRTKVNSPTEFMAANAARELGRLARYTDATIAPKVTEGLTAIFGQYPSYGDGDAIWLGAADTASYYADCSQFNICGFEDALRDAALNQTFICSDTIKIRSQDMSQAQHLAACDKMAYEESFFHTTLETGNQPVADDHNTQLQVNIFNSDTDYGKYAGPIFGIDTNNGGMYLEGNPANVGNIPNFIAYEASYANPDHFVWNLEHEYVHYLDGRFNMYGDFGTPTELVVWWSEGVAEYVSRVNDNPQAIATIQDGSTYTLAQVFDTTYDGFDVDRIYRWGYLAVRFMFERHPDEVQRMLSATRQGRWAEYKAIISGWANQYQSEFAQWTEALAKGDS
As for B1, the “specific activity (from immediately after the purification to 24 hours)” value in series [9] is reported as 12,000 (U/mg).

B2: 74 kDa collagenase (Grimontia hollisae-derived collagenase lacking the prepro region) (protein)
chain: AVEQCDLSQFQTTSSNQLMAAIRQQGASCVNALFSADTGVQEAAFSSNHMYNVAQYTRTLAQQYAGGGSDELEALYLYLRAGYYAEFYNSNITFLSWVTPAVKGAVDAFVQNAHFYDNGDAHGKVLNEVIITMDSAGLQHAYLDVVTQWLTRWNAQYAEHWYMRNAVNGVFTLLFGGQWNNQYTSLIGEQTALVTALQAFALDRTKVNSPTEFMAANAARELGRLARYTDATIAPKVTEGLTAIFGQYPSYGDGDAIWLGAADTASYYADCSQFNICGFEDALRDAALNQTFICSDTIKIRSQDMSQAQHLAACDKMAYEESFFHTTLETGNQPVADDHNTQLQVNIFNSDTDYGKYAGPIFGIDTNNGGMYLEGNPANVGNIPNFIAYEASYANPDHFVWNLEHEYVHYLDGRFNMYGDFGTPTELVVWWSEGVAEYVSRVNDNPQAIATIQDGSTYTLAQVFDTTYDGFDVDRIYRWGYLAVRFMFERHPDEVQRMLSATRQGRWAEYKAIISGWANQYQSEFAQWTEALAKGDSGAGNGEGTGSGNEGGGESGGNTGLPENCAVLPKISDGRLALDEAACLADTASASDVLWFSIPAVSEYQTIAITAGNGTGDLTLEYSNLNWPDGTNVQASSANMGNSECIILEHQANYWGYLKVSGSFENAALLVEAGSNQCRQ
For B2, in series [9], the “specific activity (24 hours after the purification)” value is recorded as 11,500 (U/mg) and the “specific activity (immediately after the purification)” value is on record as 18,000 (U/mg).

B3: recombinant 62 kDa collagenase (Grimontia hollisae-derived recombinant collagenase) (protein)
chain: AVEQCDLSQFQTTSSNQLMAAIRQQGASCVNALFSADTGVQEAAFSSNHMYNVAQYTRTLAQQYAGGGSDELEALYLYLRAGYYAEFYNSNITFLSWVTPAVKGAVDAFVQNAHFYDNGDAHGKVLNEVIITMDSAGLQHAYLDVVTQWLTRWNAQYAEHWYMRNAVNGVFTLLFGGQWNNQYTSLIGEQTALVTALQAFALDRTKVNSPTEFMAANAARELGRLARYTDATIAPKVTEGLTAIFGQYPSYGDGDAIWLGAADTASYYADCSQFNICGFEDALRDAALNQTFICSDTIKIRSQDMSQAQHLAACDKMAYEESFFHTTLETGNQPVADDHNTQLQVNIFNSDTDYGKYAGPIFGIDTNNGGMYLEGNPANVGNIPNFIAYEASYANPDHFVWNLEHEYVHYLDGRFNMYGDFGTPTELVVWWSEGVAEYVSRVNDNPQAIATIQDGSTYTLAQVFDTTYDGFDVDRIYRWGYLAVRFMFERHPDEVQRMLSATRQGRWAEYKAIISGWANQYQSEFAQWTEALAKGDSGAGNGEGTGSGNEGGGESGGNT
As to B3, the “disappearance of collagen bands on electrophoresis after incubation” value in series [10] is “This tendency was also similarly observed for the type II, type III, type IV, type V, and type VI collagens”; in series [11] it was “the band become weaker when the recombinant 62 kDa collagenase is used to react for three hours or five hours”; in series [12], “the band become weaker when the recombinant 62 kDa collagenase is used to react for three hours or five hours”; in [14], “the band become weaker when the recombinant 62 kDa collagenase is used to react for 72 hours”; in [15], “This tendency was also similarly observed for the type II, type III, type IV, type V, and type VI collagens”; in [16], “the recombinant 62 kDa collagenase seems to more rapidly digest the type I collagen than liberase”. In addition, the Maximum rate in series [13] came out at 0.6 mM/s; in [9], 0.00041 mM/s. The results for the Michaelis constant in [13] and in series [9] were 2.28 mM and 0.0011 mM, respectively. Also, the Molecular activity was 37.5 s⁻¹ in series [13] and 25.1 s⁻¹ in [9]. In addition, the Specific activity came out at 9.39 U/mg in [13] and 5490 U/mg in series [9]. Besides, the “specific activity (from immediately after the purification to 24 hours)” value in [9] was 12,000 (U/mg).
